Test results published in patent US8920798B2, “Myostatin binding agents, nucleic acids encoding the same, and methods of treatment” (Amgen Inc., priority 2002, dated 2014).

T1: myostatin (Homo sapiens, UniProt O14793)
T1 construct: To produce mature myostatin, the pooled promyostatin was enzymatically cleaved between the propeptide and mature myostatin C terminal; made in house; host or cells: E. coli K-12 strain 2596 (ATCC #202174)
T1 sequence (O14793 267-375): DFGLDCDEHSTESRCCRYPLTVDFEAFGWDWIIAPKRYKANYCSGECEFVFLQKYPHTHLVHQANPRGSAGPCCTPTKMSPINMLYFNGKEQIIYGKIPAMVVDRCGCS


What was measured:
myostatin [1] = target: T1, myostatin; test: C2C12 pMARE-luc cell based myostatin activity assay; conditions: Table VIII; affinity matured peptibodies; a range of values is given
Text: A myostatin-responsive reporter cell line was generated by transfection of C2C12 myoblast cells (ATCC No: CRL-1772) with a pMARE-luc construct. The pMARE-luc construct was made by cloning twelve repeats of the CAGA sequence, representing the myostatin/activin response elements (Dennler et al. EMBO 17: 3091-3100 (1998)) into a pLuc-MCS reporter vector (Stratagene cat #219087) upstream of the TATA box. The myoblast C2C12 cells naturally express myostatin/activin receptors on its cell surface. When myostatin binds the cell receptors, the Smad pathway is activated, and phosphorylated Smad binds to the response element (Maciasi-Silva et al. Cell 87:1215 (1996)), resulting in the expression of the lucerase gene. Luciferase activity is then measured using a commercial luciferase reporter assay kit (cat #E4550, Promega, Madison, Wis.) according to manufacturer's protocol. A stable line of C2C12 cells that had been transfected with pMARE-luc (C2C12/pMARE clone #44) was used to measure myostatin activity according to the following procedure.
Equal numbers of the reporter cells (C2C12/pMARE clone #44) were plated into 96 well cultures. A first round screening using two dilutions of peptibodies was performed with the myostatin concentration fixed at 4 nM. […] Myostatin activity was measured by determining the luciferase activity in the treated cultures. […]

CD1 nu/nu mouse model = test: In vivo anabolic activity in CD1 nu/nu mouse model; conditions: CD1 nu/nu male mice; 1 and 3 mg/kg twice weekly for 35 days; vs 1× peptibody or huFc control; FIG. 5
Text: The CD1 nu/nu mouse model (Charles River Laboratories, Massachusettes) was used to determine the in vivo efficacy of the peptibodies of the present invention which included the human Fc region (huFc). This model responded to the inhibitors of the present invention with a rapid anabolic response which was associated with increased dry muscle mass and an increase in myofibrillar proteins but was not associated with accumulation in body water content.
A group of 10 8 week old CD1 nu/nu mice were treated twice weekly or once weekly with dosages of 1 mg/kg, 3 mg/kg and 10 mg/kg (subcutaneous injection). The control group of 10 8 week old CD1 nu/nu mice received a twice weekly (subcutaneous) injection of huFc (vehicle) at 10 mg/kg. The animals were weighed every other day and lean body mass determined by NMR on day 0 and day 13. The animals are then sacrificed at day 14 and the size of the gastrocnemius muscle determined.
In another example, the 1× mTN8-19-32 peptibody was administered to CD1 nu/nu mice in a biweekly injection of 1 mg/kg, 3 mg/kg, 10 mg/kg, and 30 mg/kg compared with the huFc control (vehicle).
CD1 nu/nu male mice (10 animals per group) were treated with twice weekly injections of 1 mg/kg and 3 mg/kg of 1× mTN8-19-7 and 2× mTN8-19-7 for 35 days, while the control group (10 animals) received twice weekly injections of huFc (3 mg/kg).

C57B/6 mice = test: Gripping strength in C57B/6 mice; type: in vivo, mouse; conditions: 4 month old male C57B/6 mice; s.c. 2 injections per week, 5 mg/kg per week, 30 days; measured day 18 of recovery
Method: Normal age-matched 4 month old male C57B/6 mice were treated for 30 days with 2 injections per week subcutaneous injections 5 mg/kg per week of 2× mTN8-19-33, 2× mTN8-19-7, and huFc vehicle control group (10 animals/group). The animals were allowed to recover without any further injections. Gripping strength was measured on day 18 of the recovery period. Gripping strength was measured using a Columbia Instruments meter, model 1027 dsm (Columbus, Ohio).

[2] = In vivo pharmacokinetics in CD1 nu/nu mice; parameters: species or system mouse; conditions: 10 mg/kg and 5 mg/kg, peptibodies without the LE sequences
Method: In vivo pharmacokinetics experiments were performed using representative peptibodies without the LE sequences. 10 mg/kg and 5 mg/kg dosages were administered to CD1 nu/nu mice and the following parameters determined. Cmax (ug/mL), area under the curve (AUC) (ug-hr/mL), and half-life (hr).

myostatin [3] = target: T1, myostatin; test: BIAcore direct binding affinity assay on immobilized myostatin; conditions: Table III
Method: An affinity analysis of each candidate myostatin peptibody was performed on a BIAcore® 3000 (Biacore, Inc., Piscataway, N.J.), apparatus using sensor chip CM5, and 0.005 percent P20 surfactant (Biacore, Inc.) as running buffer.
Direct binding assays were used to screen and rank the peptibodies in order of their ability to bind to immobilized myostatin. Binding assays were carried by injection of two concentrations (40 and 400 nM) of each candidate myostatin-binding peptibody to the immobilized myostatin surface at a flow rate of 50 μl/min for 3 minutes. After a dissociation time of 3 minutes, the surface was regenerated. Binding curves were compared qualitatively for binding signal intensity, as well as for dissociation rates. Peptibody binding kinetic parameters including ka (association rate constant), kd (dissociation rate constant) and KD (dissociation equilibrium constant) were determined using the BTA evaluation 3.1 computer program (Biacore, Inc.). The lower the dissociation equilibrium constants (expressed in nM), the greater the affinity of the peptibody for myostatin.

IC50 (myostatin [1]) | Kd (myostatin [3]) | Molecule | body weight gain (CD1 nu/nu mouse model) | lean carcass weight at necropsy (CD1 nu/nu mouse model) | increase in gripping strength compared with control-treated mice (C57B/6 mice) | half-life [2]
0.857 to 2.65 nM |  | 2xmTN8-19-7: 2x peptibody, two mTN8-19-7 peptides in tandem on Fc (SEQ ID NO: 615) (protein, Peptibody) GGGGGAQLADHGQCIRWPWMCPPEGWELEGSGSATGGSGSTASSGSGSATGLADHGQCIRWPWMCPPEGWELE | greater body weight gain | greater | 15% | about 106 hours
1.08 to 1.22 nM |  | 2xmTN8-19-7(-LE): 2x mTN8-19-7 peptibody with the LE sequences deleted (SEQ ID NO: 617) (protein, Peptibody) GGGGGAQLADHGQCIRWPWMCPPEGWEGSGSATGGSGGGASSGSGSATGLADHGQCIRWPWMCPPEGWE |  |  |  | 
 | ~7 nM | ActRIIB/Fc: soluble receptor fusion protein actRIIB/Fc (R&D Systems) (protein, left off: a dimerising Fc or GST) SGRGEAETRECIYYNANWELERTNQSGLERCEGEQDKRLHCYASWRNSSGTIELVKKGCWLDDFNCYDRQECVATEENPQVYFCCCEGNFCNERFTHLPEAGGPEVTYEPPPTAPT |  |  |  | 
